Measurements: patent US20140112919A1

Experiments:
rat anti hIL-10 mAb 12G8 = test: competitive ECLA (IGEN): unlabeled IL-10 titrated against hIL-10-biotin for binding to rat 12G8
[1] = molecular target: T1, recombinant hIL-10Ra: FLAG-tagged protein (human) (UniProt Q13651); test: competitive ECLA (IGEN): unlabeled IL-10 titrated against hIL-10-biotin for binding to FLAG-tagged hIL-10Ra
T1 sequence: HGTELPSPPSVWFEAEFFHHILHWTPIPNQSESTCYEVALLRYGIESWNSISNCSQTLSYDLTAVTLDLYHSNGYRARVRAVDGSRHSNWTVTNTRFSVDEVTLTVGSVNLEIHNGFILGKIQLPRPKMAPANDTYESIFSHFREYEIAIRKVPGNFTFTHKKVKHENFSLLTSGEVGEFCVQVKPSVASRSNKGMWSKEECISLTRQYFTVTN

Sequence of recombinant cyno IL-10 (P79338 19-178 limits assumed): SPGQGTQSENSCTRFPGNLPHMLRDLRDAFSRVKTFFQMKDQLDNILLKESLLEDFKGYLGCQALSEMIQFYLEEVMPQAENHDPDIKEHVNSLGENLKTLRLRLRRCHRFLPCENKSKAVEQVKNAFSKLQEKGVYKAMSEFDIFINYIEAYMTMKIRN

Substance “recombinant human IL-10 (from UniProt P22301) (ligand)” has an IC50 (rat anti hIL-10 mAb 12G8) of 4.7 nM and an IC50 [1] of 2.9 nM.
“recombinant cyno IL-10 (from UniProt P79338) (ligand)” was tested, and the IC50 (rat anti hIL-10 mAb 12G8) was 6.6 nM and the IC50 [1] was 17.6 nM.
“recombinant human IL-10-monomer (from UniProt P22301) (ligand)” showed an IC50 (rat anti hIL-10 mAb 12G8) of 7.1 nM and an IC50 [1] of 7.2 nM.
